For 1 substance, Kd, dH and stoichiometry N results are on record in paper PMC11032371.

The target in assay [1] is K48-diUb (UniProt P0CG48). As to the kind of experiment: ITC; 293 K; 50 mM HEPES pH 7.4, 50 mM NaCl, 0.5 mM TCEP; cell 50–100 μM, syringe usually 10-fold; 20 injections of 2 μl; averages of at least two experiments; which partner was in the syringe not stated. (In ITC the heat of successive injections is recorded.)
In assay [2] the target is K63-diUb (UniProt P0CG48). The description is as above.

On to “N4BP1 (850–893) (from UniProt Q6A037 850-893) (domain or fragment)”, for which, in assay [1], the Kd stood at 47 µM, the dH was -5.87 kcal/mol and the stoichiometry N was 1.29. In assay [2], the dissociation constant Kd is 16.7 µM, the dH is -5.88 kcal/mol and the stoichiometry N amounted to 1.71.

As usually defined, the Kd is a measure of binding affinity in units of concentration. The low end stands for a tighter complex, the high end for a looser complex. One may read the stoichiometry N as the number of molecules, sites or subunits per partner or assembly.
